The data set deals with T1, SB transposase N123 (N-terminal DNA-binding domain, residues 1-123) (synthetic (salmonid consensus)).
T1 chain: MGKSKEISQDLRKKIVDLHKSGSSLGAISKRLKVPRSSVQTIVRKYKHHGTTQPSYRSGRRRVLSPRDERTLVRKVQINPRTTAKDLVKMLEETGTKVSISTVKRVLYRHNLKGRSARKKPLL
The data set can be described thus: footprint; DNase I, 30-bp protected region within left IR probe. The note with it: tags: C-terminal His tag (pET21a). On the procedure:
In addition to the NLS function, N123 also contains the specific DNA-binding domain of SB, as tested in a mobility-shift assay (FIG. 3B). A 300 bp EcoRI/HindIII fragment of pT comprising the left inverted repeat of the element was end-labeled using [α³²P]dCTP and Klenow. Nucleoprotein complexes were formed in 20 mM HEPES (pH 7.5), 0.1 mM EDTA, 0.1 mg/ml BSA, 150 mM NaCl, 1 mM DTT in a total volume of 10 μl. Reactions contained 100 pg labeled probe, 2 μg poly[dI][dC] and 1.5 μl N123. After 15 min incubation on ice, 5 μl of loading dye containing 50% glycerol and bromophenol blue was added and the samples loaded onto a 5% polyacrylamide gel (Ausubel). DNaseI footprinting was done using a kit from BRL according to the recommendations of the manufacturer. […]
The number of the deoxyribonucleoprotein complexes detected by the mobility-shift assay at increasingly higher N123 concentrations indicated two protein molecules bound per IR (FIG. 3B, right panel), consistent with either two binding sites for transposase within the IR or a transposase dimer bound to a single site. Transposase-binding sites were further analyzed and mapped in a DNasel footprinting experiment. […]

B1: salmonid internal transposase-binding site (dsDNA)
DNA 1: CCAGTGGGTCAGAAGTTTACATACACTAAG
DNA 2: CTTAGTGTATGTAAACTTCTGACCCACTGG
Regarding B1, the binding result was “binds”.

B2: salmonid outer transposase-binding site (dsDNA)
DNA 1: GTTGAAGTCGGAAGTTTACATACACTTAGG
DNA 2: CCTAAGTGTATGTAAACTTCCGACTTCAAC
With B2, the binding result is on record as “binds”.

The values are drawn from US20030154500, “Nucleic acid transfer vector for the introduction of nucleic acid into the DNA of a cell” (Regents of the University of Minnesota, published 2003).
